Laboratory results as given in paper PMC2926129 (Regulatory peptides, 2010).
Ends that are not written are not given here.

Target: T1, rabbit calcitonin receptor (rabbit, UniProt P79222 23-474)
T1 sequence (looked up): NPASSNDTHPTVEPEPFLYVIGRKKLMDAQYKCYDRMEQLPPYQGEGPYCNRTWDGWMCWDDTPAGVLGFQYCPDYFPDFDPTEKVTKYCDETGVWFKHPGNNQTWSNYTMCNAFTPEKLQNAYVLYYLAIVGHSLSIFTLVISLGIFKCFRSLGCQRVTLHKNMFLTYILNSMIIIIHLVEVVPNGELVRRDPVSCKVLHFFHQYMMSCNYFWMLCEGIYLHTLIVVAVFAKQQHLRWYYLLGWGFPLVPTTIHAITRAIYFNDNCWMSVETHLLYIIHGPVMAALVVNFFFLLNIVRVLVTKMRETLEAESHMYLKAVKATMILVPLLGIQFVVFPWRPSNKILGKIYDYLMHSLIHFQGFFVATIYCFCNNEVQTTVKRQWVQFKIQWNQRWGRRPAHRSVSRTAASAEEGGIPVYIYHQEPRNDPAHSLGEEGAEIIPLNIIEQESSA
Test: radioligand binding

Binder: CGNLSTCMLGTYTQDFNKFHTFPQTAIGVGAP (ligand, UniProt P01258 85-116, looked up, ends and bridges not checked; cysteine pairing not given here) [human calcitonin]
- Ki: 610 pM
